The target in series [1] is T1, XerA (Pab0255) (Pyrococcus abyssi, UniProt Q9V1P5 1-286).
T1 sequence: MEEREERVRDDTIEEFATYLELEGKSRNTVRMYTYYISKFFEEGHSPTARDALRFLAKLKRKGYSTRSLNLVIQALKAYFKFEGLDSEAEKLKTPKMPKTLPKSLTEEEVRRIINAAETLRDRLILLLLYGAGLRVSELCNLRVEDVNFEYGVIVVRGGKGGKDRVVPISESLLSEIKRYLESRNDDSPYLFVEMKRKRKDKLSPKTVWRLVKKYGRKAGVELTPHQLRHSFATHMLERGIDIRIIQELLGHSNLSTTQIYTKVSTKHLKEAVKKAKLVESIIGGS
Kind of series: EMSA; 65 C; 0.5 ug poly(dIdC); EMSA: 0.5 uM labeled DNA, 50 mM Tris pH 7.5, 30 mM NaCl, 0.5 ug poly(dIdC).poly(dIdC), 20 ul, 30 min at 20 or 65 C; native PAGE in TGE at 4 C. As to conditions: protein: recombinant; tags: N-terminal His6 (MHHHHHH, from forward primer); label: 5'-32P on top strand; blunt. In general terms: A gel shift assay detects complexes by their altered migration in electrophoresis.

The target in series [2] is T1, XerA (Pab0255). Put plainly: EMSA; 20 C; 0.5 ug poly(dIdC); EMSA: 0.5 uM labeled DNA, 50 mM Tris pH 7.5, 30 mM NaCl, 0.5 ug poly(dIdC).poly(dIdC), 20 ul, 30 min at 20 or 65 C; native PAGE in TGE at 4 C. Conditions: protein: recombinant; tags: N-terminal His6 (MHHHHHH, from forward primer); label: 5'-32P on top strand; blunt.

B1: dif-Pab (dsDNA)
DNA 1: GTTAACTATATTGGATATAATCGGCCTTATATCTAAAGTGTTG
DNA 2: CAACACTTTAGATATAAGGCCGATTATATCCAATATAGTTAAC
On to B1, for which the binding signal with XerA (Pab0255) [1] is 8 fold complex formation vs attP; with XerA (Pab0255) [2] it was 4 fold complex formation vs attP.

B2: attP (SSV1 minimal) (dsDNA)
DNA 1: GTTAACTATCTTTTCCGCCTCCGGAGCCGGAGGTCCCGTGTTG
DNA 2: CAACACGGGACCTCCGGCTCCGGAGGCGGAAAAGATAGTTAAC
On to B2, for which the binding signal in the series with XerA (Pab0255) [1] is 0.125 complex formation relative to dif-Pab (8 fold less); with XerA (Pab0255) [2], 0.25 complex formation relative to dif-Pab (4 fold less).

These data come from PMC2958812, “Evidence for a Xer/dif System for Chromosome Resolution in Archaea”.
